Starred links: 1 amine or outer side, 2 acyl side, 3 side chain; linkers in the order of their positions; H or OH if unused. Non-standard residues stand in square brackets, D forms with d. Groups on a side chain read outwards from the residue. No end group written: not given here. *: point of attachment. C20 diacid = O=C(O)CCCCCCCCCCCCCCCCCCC(=O)*; C18 diacid = O=C(O)CCCCCCCCCCCCCCCCC(=O)*; γGlu = O=C(O)[C@H](CCC(=O)[*:2])N[*:1]; αMeF = C[C@](N)(Cc1ccccc1)C(=O)O; AEEA = NCCOCCOCC(=O)O; Aib = CC(C)(N)C(=O)O
B1: Peptide 382 (peptide)
peptide: H[Aib]HGS[αMeF]TSDVSK[αMeF]LDSR[Aib]AQDFVK([AEEA-AEEA-γGlu-γGlu-C18 diacid])SIANTGG-NH2
modifications: N-terminus assumed
SMILES: CC[C@H](C)[C@H](NC(=O)[C@H](CO)NC(=O)[C@H](CCCCNC(=O)COCCOCCNC(=O)COCCOCCNC(=O)CC[C@H](NC(=O)CC[C@H](NC(=O)CCCCCCCCCCCCCCCCC(=O)O)C(=O)O)C(=O)O)NC(=O)[C@@H](NC(=O)[C@H](Cc1ccccc1)NC(=O)[C@H](CC(=O)O)NC(=O)[C@H](CCC(N)=O)NC(=O)[C@H](C)NC(=O)C(C)(C)NC(=O)[C@H](CCCNC(=N)N)NC(=O)[C@H](CO)NC(=O)[C@H](CC(=O)O)NC(=O)[C@H](CC(C)C)NC(=O)[C@](C)(Cc1ccccc1)NC(=O)[C@H](CCCCN)NC(=O)[C@H](CO)NC(=O)[C@@H](NC(=O)[C@H](CC(=O)O)NC(=O)[C@H](CO)NC(=O)[C@@H](NC(=O)[C@](C)(Cc1ccccc1)NC(=O)[C@H](CO)NC(=O)CNC(=O)[C@H](Cc1c[nH]cn1)NC(=O)C(C)(C)NC(=O)[C@@H](N)Cc1c[nH]cn1)[C@@H](C)O)C(C)C)C(C)C)C(=O)N[C@@H](C)C(=O)N[C@@H](CC(N)=O)C(=O)N[C@H](C(=O)NCC(=O)NCC(N)=O)[C@@H](C)O
B2: Peptide 353 (peptide)
peptide: HXHGSXTSDVSKXLDSQAAQDFVXWIANT
modifications: Aib at 2; αMePhe at 6 and 13; K(γE-γE-(PEG)2-γE-γE-C18diacid)24 (printed YE-YE-(PEG)2-γE-γE-); C-terminal amide
B3: Peptide 355 (peptide)
peptide: HXHGSXTSDVSKXLDSQAAQDFVXWIANT
modifications: Aib at 2; αMePhe at 6 and 13; K((PEG)2-(PEG)2-γE-γE-C20diacid)24; C-terminal amide

molecular target: human glucagon receptor (hGCGR) (human, UniProt P47871 26-477); assay: cell-based or functional assay
Sequence (P47871 26-477): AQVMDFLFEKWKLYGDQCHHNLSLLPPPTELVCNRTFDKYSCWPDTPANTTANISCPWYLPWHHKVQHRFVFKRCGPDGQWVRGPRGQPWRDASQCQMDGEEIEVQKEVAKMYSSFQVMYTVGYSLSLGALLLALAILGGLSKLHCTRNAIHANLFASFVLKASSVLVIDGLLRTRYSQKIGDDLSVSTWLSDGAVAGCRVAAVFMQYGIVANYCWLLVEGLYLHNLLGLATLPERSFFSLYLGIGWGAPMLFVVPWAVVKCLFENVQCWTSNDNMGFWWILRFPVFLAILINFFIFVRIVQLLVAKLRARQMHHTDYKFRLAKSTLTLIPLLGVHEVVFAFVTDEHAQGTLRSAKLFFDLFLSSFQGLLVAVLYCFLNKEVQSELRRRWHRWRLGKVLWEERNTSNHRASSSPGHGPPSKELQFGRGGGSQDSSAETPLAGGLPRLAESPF

In order of falling “hGluc-R EC50 (pM); cAMP production” value:
1. HXHGTFTSDVSKXLDSQAAQDFVXWIANT (Aib at 2; αMePhe at 6 and 13; K(O2Oc-O2Oc-γE-C18diacid)24; C-terminal amide) [Peptide 348]  4110 pM
2. H[Aib]HGS[αMeF]TSDVSK[αMeF]LDSQAAQD[αMeF]VK([AEEA-AEEA-γGlu-γGlu-C20 diacid])[Aib]IANT-NH2 [Peptide 384]  1240 pM
3. HXHGSXTSDVSKXLDSQAAQDFVXWIANT (Aib at 2; αMePhe at 6 and 13; K(γE-C20diacid)24; C-terminal amide) [Peptide 354]  902 pM
4. HXHGTFTSDVSKXLDSQAAQDFVXWIANT (Aib at 2; αMePhe at 13; K(γE-C20diacid)24; C-terminal amide) [Peptide 347]  597 pM
5. B3  478 pM
6. B1  329 pM
7. HXHGSXTSDVSKXLDSQAAQDFVXWIANT (Aib at 2; αMePhe at 6 and 13; K(O2Oc-O2Oc-γE-C20diacid)24; C-terminal amide) [Peptide 356]  316 pM
8. B2  163 pM
9. HXQGSXTSDVSKXLDSQAAQDFVXWIANT (Aib at 2; αMePhe at 6 and 13; K(O2Oc-O2Oc-γE-C18diacid)24; C-terminal amide) [Peptide 349]  83.7 pM

molecular target: human GLP-1 receptor (hGLP-1R) (human, UniProt P43220 24-463); assay: cell-based or functional assay

In order of falling “hGLP-1R EC50 (pM); cAMP production” value:
1. HXHGTFTSDVSKXLDSQAAQDFVXWIANT (Aib at 2; αMePhe at 13; K(γE-C20diacid)24; C-terminal amide) [Peptide 347]  4970 pM
2. HXHGSXTSDVSKXLDSQAAQDFVXWIANT (Aib at 2; αMePhe at 6 and 13; K(γE-C20diacid)24; C-terminal amide) [Peptide 354]  1110 pM
3. H[Aib]HGS[αMeF]TSDVSK[αMeF]LDSQAAQD[αMeF]VK([AEEA-AEEA-γGlu-γGlu-C20 diacid])[Aib]IANT-NH2 [Peptide 384]  797 pM
4. B3  424 pM
5. B2  311 pM
6. HXHGSXTSDVSKXLDSQAAQDFVXWIANT (Aib at 2; αMePhe at 6 and 13; K(O2Oc-O2Oc-γE-C20diacid)24; C-terminal amide) [Peptide 356]  304 pM
7. HXQGSXTSDVSKXLDSQAAQDFVXWIANT (Aib at 2; αMePhe at 6 and 13; K(O2Oc-O2Oc-γE-C18diacid)24; C-terminal amide) [Peptide 349]  121 pM
8. HXHGTFTSDVSKXLDSQAAQDFVXWIANT (Aib at 2; αMePhe at 6 and 13; K(O2Oc-O2Oc-γE-C18diacid)24; C-terminal amide) [Peptide 348]  70.1 pM
9. B1  56 pM
